The target in series [1] is T1, AtTCP10-DBD DRH mutant (UniProt O82277 1-87, D31A;R32A;H33A).
T1 sequence: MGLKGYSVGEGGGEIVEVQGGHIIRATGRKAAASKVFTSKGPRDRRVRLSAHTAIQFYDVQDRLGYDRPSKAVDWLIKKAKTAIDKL
Briefly: ITC. (In general: Isothermal titration calorimetry measures the heat released or taken up as one component is titrated into another.)

The target of a further series is T2, AtTCP10-DBD (UniProt O82277 1-87).
T2 sequence: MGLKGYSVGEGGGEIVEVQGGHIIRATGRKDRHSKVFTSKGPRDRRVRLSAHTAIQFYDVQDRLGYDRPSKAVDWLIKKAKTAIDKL
Put plainly: ITC.

The next series addresses T3, AtTCP10-DBD RR mutant (UniProt O82277 1-87, R46A;R48A).
T3 sequence: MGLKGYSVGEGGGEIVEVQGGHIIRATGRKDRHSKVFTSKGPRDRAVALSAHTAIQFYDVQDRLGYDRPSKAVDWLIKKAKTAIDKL
Briefly: ITC.

Series [2] addresses T4, AtTCP10-DBD DRH RR mutant (UniProt O82277 1-87, D31A;R32A;H33A;R46A;R48A).
T4 sequence: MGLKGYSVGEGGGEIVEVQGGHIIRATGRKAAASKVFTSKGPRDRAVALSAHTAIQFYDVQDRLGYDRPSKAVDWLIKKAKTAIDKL
Put plainly: ITC.

The target of series [3] is T5, AtTCP15-DBD (UniProt Q9C9L2 51-113). Briefly: EMSA.
The target of series [4] is T5, AtTCP15-DBD. Put plainly: ITC.
For series [5], the target named is T1, AtTCP10-DBD DRH mutant. Put plainly: EMSA. (In general: A gel shift assay detects complexes by their altered migration in electrophoresis.)

B1: three-site class II DNA (dsDNA)
DNA 1: ATGTGGTCCCCACT
DNA 2: TAGTGGGGACCACA
Regarding B1, the Kd (in general, the concentration at which binding is half-saturated) was 353 nM with AtTCP10-DBD DRH mutant [1], 8.5 nM in the series with AtTCP10-DBD, 1130 nM with AtTCP10-DBD RR mutant and 1620 nM in series [2].

B2: one-site class I DNA (dsDNA)
DNA 1: ATAGAGGTCCGTGT
DNA 2: TACACGGACCTCTA
As for B2, in the series with AtTCP15-DBD [3], the binding result is reported as “binds”.

B3: three-site class I DNA (dsDNA)
DNA 1: ATGTGGGTCCCACT
DNA 2: TAGTGGGACCCACA
B3 gave a Kd with AtTCP15-DBD [4] of 38.3 nM.

B4: one-site class II DNA (dsDNA)
DNA 1: ATAGAGTCCCGTGT
DNA 2: TACACGGGACTCTA
As to B4, in the series with AtTCP10-DBD, the Kd turned out to be 366 nM. Also, the binding result in the series with AtTCP10-DBD DRH mutant [5] was “binds”.

B5: two-site class II DNA (dsDNA)
DNA 1: ATGTGGTCCCGTGT
DNA 2: TACACGGGACCACA
Turning to B5, the Kd in the series with AtTCP10-DBD worked out at 351 nM. Further, the binding result with AtTCP10-DBD DRH mutant [5] is “binds”.

B6: two-site class I DNA (dsDNA)
DNA 1: ATGTGGGTCCGTGT
DNA 2: TACACGGACCCACA
B6 yielded a Kd with AtTCP15-DBD [4] of 109 nM.

Source of the values: article PMC9841405.
